Results from the RNAGym collection of RNA variant scans (doi:10.1073/pnas.2313332121).
Variants at the floor of the assay were thinned out.

B1: TPR 5TU (parent)
chain: GGAUCUUCUCGAUCUAACAAAAAAGACAAAUCUGCCACAAAGCUUGAGAGCAUCUUCGGAUGCAGAGGCGGCAGCCUUCGGUGGCGCGAUAGCGCCAACGUUCUCAACUAUGACACGCAAAACGCGUGCUCCGUUGAAUGGAGUUUAUCAUG

Variants of: B1
Assay: polymerase ribozyme fitness, log enrichment relative to wild type (log ratio); higher = more active; in vitro selection for triplet polymerase activity
How it was run: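 A heterodimeric triplet polymerase ribozyme had each of its subunits mutagenized by PCR into a library, which was transcribed. One round of in vitro selection, done in triplicate, annealed each library with a biotinylated primer, its partner subunit and triplets, then incubated it frozen at −7 °C before gel excision of extended constructs, streptavidin-bead capture and RT-PCR. Fitness is the logarithm of genotype enrichment relative to wild-type enrichment, based on Illumina sequencing of inputs and outputs and inverse-variance-weighted replicate averages. A base-2 logarithm is used, and genotypes were kept only with ≥10 input reads and ≥1 read per output.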

Variant | polymerase ribozyme fitness (log ratio)
C99U A115C | -1.19
A91C C114U U139C | ≤ -4.2
A91G U130G A150G | ≤ -4.2
C93A C99G | -3.88
C99U U144A | -1.02
C96A C116U G136U A150G | -4.06
C96A U146A U148A | -4.17
C93A C116A G126A G141C | ≤ -4.2
G94A A113U A120U | -1.56
G92U A138G | -3.48
G94C U151A | -3.85
C95U C116G G133U | ≤ -4.2
G92A C125A U134G | -3.58
G92C C95A | -2.12
C99G C108A A110G | ≤ -4.2
C93A A137U | ≤ -4.2
C93U A137G | -3.18
C96U A97G | -0.535
C96U A97U | -0.832
G92U G133C | -2.1
A91U A106C C125A | ≤ -4.2
C93G C118U C123U | -3.29
C96A G133U | -3.9
C93U G133U | -3.7

Variant | polymerase ribozyme fitness (log ratio)
G94U G141C U144G | -1.83
C96U G128U U146C | -3.35
C93U C123U U127C U135C | ≤ -4.2
G94U U151A | ≤ -4.2
C96U A98G | -1.3
A91U G124U C131G | ≤ -4.2
A91G C114A C116U A137C | -3.79
A98G U127C | -3.01
G92U U101G C131U | 0.547
A98U U127G | -3.18
C93U G128C | -3.31
C93U G128U | -3.6
G92U C105U A107U A110C A138C | ≤ -4.2
C95U C96U C118U C125A C129G | ≤ -4.2
G92C C99A A138C | ≤ -4.2
C93A C95A U104A G141C | ≤ -4.2
C93G U146G | -3.41
G92C G94A | -2.95
A98U C105U | 0.54
C93A A107G | ≤ -4.2
C95U C118U | -1.09
C99U G141A | -0.231
C95U C99A G117U U148A | ≤ -4.2
A97U G152A | -2.62

Variant | polymerase ribozyme fitness (log ratio)
C93G C96A C105U C116U | -4.17
A91U A120U | ≤ -4.2
G94U G100U | -3.85
G92A A98C G133C A142U | ≤ -4.2
A97U C132A | -2.65
A98U U134G | -2.65
C95U G141U | 0.762
G92C U101G C131A | -3.96
A91G G133A G141U G143U | ≤ -4.2
C96U U102C C125U | -2.51
C93U A119U G141A | -0.528
C93A A106C | -2.63
C93U C95U | -2.43
A97G G133A | -3.61
C96G U102A U109C | ≤ -4.2
G100C | -3.72
G100A | -3.76
C99G U134C | -0.713
C93A G141A | -1.74
G94C U135A G141A | -2.22
G94A U101G U148A | -4.03
C93U A137G C149U | -2.47
G92A C116U C125U U134C | ≤ -4.2
A98U A147C | 0.168

Variant | polymerase ribozyme fitness (log ratio)
C99G C116U | -0.76
C99U G126A G143U | -3.55
G94C C105G C116A | -2.89
C96U C99A G133C G141A | ≤ -4.2
C99A G143A | -2.02
A97C A119G | 0.72
C96G A115G C123A A147U | -0.404
C96G G141A | -0.288
A97U U148C | -1.51
G94C G124U G143U | -3.6
G92C A122C A150G | -2.28
A98G U127G G141A | ≤ -4.2
G94A C131U | 0.309
A91U C118G G141C | -3.94
G100A A107U | ≤ -4.2
C93A U148C | -3.62
C93A U148G | ≤ -4.2
C93A A150C | -3.74
G94C A106G | -1.31
C99U G126U | -0.0913
C93G G128U U146C | ≤ -4.2
C96A C116U | -0.662
G92C U135C | -2.88
G92C U135G | -3.12

Variant | polymerase ribozyme fitness (log ratio)
C93U C95G A113G A137U A138U | ≤ -4.2
C99A U134G | -2.57
G94C A122C | -0.988
G94C | -0.474
G94U | 1.12
G94A | -0.622
A91G C118G G143C | ≤ -4.2
A98U A120U G143C | -2.39
C99A U135A | -2.77
C96G U139G G140U C149A | ≤ -4.2
C93U A98C | -0.981
C93A G143A | -2.78
A91C U144C | -4.19
A91G C105U C131A | -3.83
C93G U144A | -2.68
G94C G128U | -3.18
C95U U104G | -2.11
C96A U134A | -2.73
C96G C116A A138C A147C | -3.36
A98G U101C G143U C149U | ≤ -4.2
C93G G141U | -2.01
C93A C125A | -1.68
G92U C96A U127C U145C A147C | ≤ -4.2
C96A U145A | 0.431

Variant | polymerase ribozyme fitness (log ratio)
G92A C116U | -2.29
G92A C116G | -2.6
C93G A142G | -3.81
C96A U151G | ≤ -4.2
C93A C132G A138C G140U G141C | ≤ -4.2
A91C A115G U146A | ≤ -4.2
C93U C149A | -4.05
G94U C116G | -0.502
C96G A97U C118A | -3.08
C93G A107U | -4.14
G94U U148C | -2.92
C95U C132A | -2.32
C99A A120C U148G | ≤ -4.2
A91G C95U C125U | -4.09
G92A G141C A147U | -3.44
C96U A121U U139A | ≤ -4.2
C96G C116G | 0.127
G92A G124A | -2.65
C93A A97G | -3.37
C93A A97U | -3.38
A91C A98G A122U U144C A147U A150C | ≤ -4.2
C96G U130C | 0.873
G92C A138G G140A | ≤ -4.2
G94A U101C G136C A137G U151A | ≤ -4.2

Variant | polymerase ribozyme fitness (log ratio)
C96A A97G | -0.635
G94U C123G G141A U146C | -2.83
G92A G152U | -3.58
C93A A119G A120U | -2.53
G92C A98U G143A | -1.77
C96A C118U U148C | -2.57
C95U U139G U148A | -3.14
C95U U146G | -1.04
A98U C118U U144G | 0.244
A91G C123G | -2.82
A91G C123U | -2.7
C96U C114U A150U | -3.94
C96U A115C | -2.68
A91G C118G | -3.49
A91G C118U | -3.15
C93U G143U | -3.38
G94A U127G U146G | -3.33
C93G G140U | ≤ -4.2
G92A A98G | -3
C93G C108G C116G G133C | -3.85
A91C A113G | -4.15
G92U A115C | -2.23
G92A C96A C103G C105U A107G A119G C125U C149A | ≤ -4.2
